Measured values reported in PMC9482650, “Quantitative fragmentomics allow affinity mapping of interactomes” (Nature Communications, 2022).
Values belong to the binder of their own block, whether it stands above or below them.

Experiments:
Assay in all cases: holdup assay
Parameters in all cases: key: below the threshold = too weak to quantify, mostly under pKd 3.1 to 4
Inadl_1, Q8NI35 = biological target: Inadl_1, Q8NI35
DFNB31_1, Q9P202 = biological target: T1, DFNB31_1, Q9P202
T1 sequence (Q9P202 135-233, limits assumed, looked up): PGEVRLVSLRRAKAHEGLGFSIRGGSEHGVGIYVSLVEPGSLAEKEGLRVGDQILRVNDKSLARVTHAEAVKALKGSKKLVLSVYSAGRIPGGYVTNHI

PDZD2_2, O15018 = biological target: T2, PDZD2_2, O15018
T2 sequence (O15018 329-429, limits assumed, looked up): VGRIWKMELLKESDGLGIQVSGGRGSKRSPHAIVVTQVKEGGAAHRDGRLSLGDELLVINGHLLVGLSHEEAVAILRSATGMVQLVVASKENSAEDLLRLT

HTRA3, P83110 = biological target: T3, HTRA3, P83110
T3 sequence (P83110 354-453, limits assumed, looked up): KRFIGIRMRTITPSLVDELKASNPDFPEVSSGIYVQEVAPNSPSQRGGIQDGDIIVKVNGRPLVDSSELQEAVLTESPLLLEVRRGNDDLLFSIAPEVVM

DLG1_1, Q12959 = biological target: DLG1_1, Q12959
SCRIB_3, Q14160 = biological target: SCRIB_3, Q14160
APBA2_1, Q99767 = biological target: T4, APBA2_1, Q99767
T4 sequence (Q99767 563-664, limits assumed, looked up): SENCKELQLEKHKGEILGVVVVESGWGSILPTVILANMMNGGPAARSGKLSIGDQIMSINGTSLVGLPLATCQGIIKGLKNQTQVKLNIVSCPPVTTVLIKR

GRIP1_3, Q9Y3R0 = biological target: T5, GRIP1_3, Q9Y3R0
T5 sequence (Q9Y3R0 247-346, limits assumed, looked up): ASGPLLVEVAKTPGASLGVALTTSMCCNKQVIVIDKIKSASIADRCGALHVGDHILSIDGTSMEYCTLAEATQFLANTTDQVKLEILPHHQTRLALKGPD

PICK1, Q9NRD5 = biological target: PICK1, Q9NRD5
DLG3_2, Q92796 = biological target: T6, DLG3_2, Q92796
T6 sequence (Q92796 221-321, limits assumed, looked up): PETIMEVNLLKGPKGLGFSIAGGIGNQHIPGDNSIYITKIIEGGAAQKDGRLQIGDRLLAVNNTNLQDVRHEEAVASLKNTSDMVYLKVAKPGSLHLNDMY

AHNAK1, Q09666 = biological target: AHNAK1, Q09666
GRIP1_4, Q9Y3R0 = biological target: T7, GRIP1_4, Q9Y3R0
T7 sequence (Q9Y3R0 467-571, limits assumed, looked up): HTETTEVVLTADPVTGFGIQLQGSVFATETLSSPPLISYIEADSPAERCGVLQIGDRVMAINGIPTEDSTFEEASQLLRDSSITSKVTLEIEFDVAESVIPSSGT

LNX1_3, Q8TBB1 = biological target: LNX1_3, Q8TBB1
PDZRN4_1, Q6ZMN7 = biological target: PDZRN4_1, Q6ZMN7
GORASP1, Q9BQQ3 = biological target: GORASP1, Q9BQQ3
GRIP1_7, Q9Y3R0 = biological target: T8, GRIP1_7, Q9Y3R0
T8 sequence (Q9Y3R0 999-1096, limits assumed, looked up): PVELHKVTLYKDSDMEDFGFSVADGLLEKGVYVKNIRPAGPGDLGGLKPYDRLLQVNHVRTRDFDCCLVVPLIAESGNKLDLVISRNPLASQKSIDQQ

LIN7B, Q9HAP6 = biological target: T9, LIN7B, Q9HAP6
T9 sequence (Q9HAP6 88-185, limits assumed, looked up): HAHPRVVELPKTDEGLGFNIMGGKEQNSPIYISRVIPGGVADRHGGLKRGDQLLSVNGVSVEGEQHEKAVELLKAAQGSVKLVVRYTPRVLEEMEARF

DLG2_3, Q15700 = biological target: DLG2_3, Q15700
NHERF4_1, Q86UT5-2 = biological target: NHERF4_1, Q86UT5-2
Inadl_5, Q8NI35 = biological target: Inadl_5, Q8NI35
SNTB1, Q13884 = biological target: T10, SNTB1, Q13884
T10 sequence (Q13884 107-205, limits assumed, looked up): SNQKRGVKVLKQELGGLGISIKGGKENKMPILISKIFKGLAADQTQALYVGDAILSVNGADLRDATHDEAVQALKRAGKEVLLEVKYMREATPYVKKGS

Inadl_9, Q8NI35 = biological target: Inadl_9, Q8NI35
PCLO, Q9Y6V0 = biological target: T11, PCLO, Q9Y6V0
T11 sequence (Q9Y6V0 4491-4600, limits assumed, looked up): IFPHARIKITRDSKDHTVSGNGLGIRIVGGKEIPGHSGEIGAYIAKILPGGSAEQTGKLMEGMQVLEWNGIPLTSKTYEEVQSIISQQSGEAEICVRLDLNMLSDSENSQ

MPP7, Q5T2T1 = biological target: T12, MPP7, Q5T2T1
T12 sequence (Q5T2T1 134-230, limits assumed, looked up): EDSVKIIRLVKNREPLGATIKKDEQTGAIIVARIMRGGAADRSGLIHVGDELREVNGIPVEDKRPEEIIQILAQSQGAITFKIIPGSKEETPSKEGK

Inadl_10, Q8NI35 = biological target: Inadl_10, Q8NI35
DLG1_2, Q12959 = biological target: DLG1_2, Q12959
[1] = plain residues with an end cap or a label only (N-terminal biotin on a linker: ahx)
[2] = plain residues with an end cap or a label only (N-terminal biotin on a linker: ttds)

Chain of Inadl_10, Q8NI35 (Q8NI35 1673-1763): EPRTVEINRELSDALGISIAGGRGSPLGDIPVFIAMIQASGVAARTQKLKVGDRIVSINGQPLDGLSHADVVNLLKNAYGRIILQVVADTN
Chain of LNX1_3, Q8TBB1 (Q8TBB1 500-596): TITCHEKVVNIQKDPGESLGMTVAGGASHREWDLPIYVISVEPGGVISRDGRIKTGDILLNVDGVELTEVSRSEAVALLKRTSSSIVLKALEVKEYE
Chain of Inadl_5, Q8NI35 (Q8NI35 673-780): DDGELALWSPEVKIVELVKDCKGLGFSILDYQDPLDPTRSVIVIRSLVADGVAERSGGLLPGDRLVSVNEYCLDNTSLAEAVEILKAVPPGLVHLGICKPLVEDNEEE
Chain of AHNAK1, Q09666 (Q09666 4-100): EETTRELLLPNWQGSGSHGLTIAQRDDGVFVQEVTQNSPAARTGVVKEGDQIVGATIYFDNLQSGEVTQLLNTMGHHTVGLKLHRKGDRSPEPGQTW
Chain of Inadl_9, Q8NI35 (Q8NI35 1530-1615): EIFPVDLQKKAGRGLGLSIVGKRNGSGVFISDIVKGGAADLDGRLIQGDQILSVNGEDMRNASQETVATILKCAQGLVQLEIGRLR
Chain of SCRIB_3, Q14160 (Q14160 999-1103): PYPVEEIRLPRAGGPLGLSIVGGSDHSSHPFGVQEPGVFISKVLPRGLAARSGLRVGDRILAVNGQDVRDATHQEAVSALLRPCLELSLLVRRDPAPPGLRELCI
Chain of PDZRN4_1, Q6ZMN7 (Q6ZMN7 213-318): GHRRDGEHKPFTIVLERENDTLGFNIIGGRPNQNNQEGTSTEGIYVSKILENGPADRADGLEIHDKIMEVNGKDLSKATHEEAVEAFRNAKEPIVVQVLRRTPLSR
Chain of NHERF4_1, Q86UT5-2 (Q86UT5 other isoform, or with tags, fused parts or gaps): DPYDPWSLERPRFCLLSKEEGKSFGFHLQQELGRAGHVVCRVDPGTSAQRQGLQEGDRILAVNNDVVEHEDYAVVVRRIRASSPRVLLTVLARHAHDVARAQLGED
Chain of Inadl_1, Q8NI35 (Q8NI35 113-229): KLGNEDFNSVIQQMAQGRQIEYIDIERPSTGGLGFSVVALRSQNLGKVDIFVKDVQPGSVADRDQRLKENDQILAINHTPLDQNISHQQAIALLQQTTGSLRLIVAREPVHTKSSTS
Chain of PICK1, Q9NRD5 (Q9NRD5 17-115): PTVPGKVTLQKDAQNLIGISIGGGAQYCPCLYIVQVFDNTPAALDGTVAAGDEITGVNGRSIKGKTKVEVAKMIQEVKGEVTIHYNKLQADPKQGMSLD
Chain of GORASP1, Q9BQQ3 (Q9BQQ3 1-208): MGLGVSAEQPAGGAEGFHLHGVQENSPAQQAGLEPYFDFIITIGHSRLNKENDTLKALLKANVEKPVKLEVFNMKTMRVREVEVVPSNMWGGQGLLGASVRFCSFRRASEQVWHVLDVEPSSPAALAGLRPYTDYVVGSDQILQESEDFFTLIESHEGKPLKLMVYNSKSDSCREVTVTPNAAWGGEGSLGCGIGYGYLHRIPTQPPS

pKd (Inadl_1, Q8NI35; [1]): below the threshold
pKd (DFNB31_1, Q9P202; [1]): below the threshold
pKd (PDZD2_2, O15018; [1]): 4.54
pKd (HTRA3, P83110; [1]): below the threshold
pKd (DLG1_1, Q12959; [1]): below the threshold
pKd (SCRIB_3, Q14160; [1]): below the threshold
pKd (APBA2_1, Q99767; [1]): below the threshold
pKd (GRIP1_3, Q9Y3R0; [1]): below the threshold
pKd (PICK1, Q9NRD5; [1]): below the threshold
pKd (DLG3_2, Q92796; [1]): below the threshold
pKd (AHNAK1, Q09666; [1]): below the threshold
pKd (GRIP1_4, Q9Y3R0; [1]): below the threshold
pKd (LNX1_3, Q8TBB1; [1]): below the threshold
pKd (PDZRN4_1, Q6ZMN7; [1]): below the threshold
pKd (GORASP1, Q9BQQ3; [1]): below the threshold
pKd (GRIP1_7, Q9Y3R0; [1]): below the threshold
pKd (LIN7B, Q9HAP6; [1]): below the threshold
pKd (DLG2_3, Q15700; [1]): below the threshold
pKd (NHERF4_1, Q86UT5-2; [1]): below the threshold
pKd (Inadl_5, Q8NI35; [1]): below the threshold
pKd (SNTB1, Q13884; [1]): below the threshold
pKd (Inadl_9, Q8NI35; [1]): below the threshold
pKd (PCLO, Q9Y6V0; [1]): below the threshold
pKd (MPP7, Q5T2T1; [1]): below the threshold
Binder: LCKSHAFSHV [PDLIM7, Q9NR12;Q9NR12-1]

pKd (Inadl_1, Q8NI35; [2]): below the threshold
pKd (DFNB31_1, Q9P202; [2]): 3.84
pKd (PDZD2_2, O15018; [2]): 3.59
pKd (HTRA3, P83110; [2]): below the threshold
pKd (DLG1_1, Q12959; [2]): 3.79
pKd (SCRIB_3, Q14160; [2]): 5.23
pKd (Inadl_10, Q8NI35; [2]): below the threshold
pKd (APBA2_1, Q99767; [2]): below the threshold
pKd (GRIP1_3, Q9Y3R0; [2]): 3.66
pKd (DLG1_2, Q12959; [2]): 4.79
pKd (PICK1, Q9NRD5; [2]): below the threshold
pKd (DLG3_2, Q92796; [2]): 4.35
pKd (AHNAK1, Q09666; [2]): below the threshold
pKd (GRIP1_4, Q9Y3R0; [2]): below the threshold
pKd (LNX1_3, Q8TBB1; [2]): below the threshold
pKd (PDZRN4_1, Q6ZMN7; [2]): 3.98
pKd (GORASP1, Q9BQQ3; [2]): below the threshold
pKd (GRIP1_7, Q9Y3R0; [2]): below the threshold
pKd (LIN7B, Q9HAP6; [2]): below the threshold
pKd (DLG2_3, Q15700; [2]): below the threshold
pKd (NHERF4_1, Q86UT5-2; [2]): below the threshold
pKd (Inadl_5, Q8NI35; [2]): below the threshold
pKd (SNTB1, Q13884; [2]): 5.51
pKd (Inadl_9, Q8NI35; [2]): below the threshold
pKd (PCLO, Q9Y6V0; [2]): below the threshold
pKd (MPP7, Q5T2T1; [2]): below the threshold
Binder: CLDTSRETDL [KCNA5, P22460]

pKd (Inadl_1, Q8NI35; [1]): below the threshold
pKd (DFNB31_1, Q9P202; [1]): below the threshold
pKd (PDZD2_2, O15018; [1]): 3.99
pKd (HTRA3, P83110; [1]): 4.2
pKd (DLG1_1, Q12959; [1]): below the threshold
pKd (SCRIB_3, Q14160; [1]): below the threshold
pKd (Inadl_10, Q8NI35; [1]): below the threshold
pKd (APBA2_1, Q99767; [1]): below the threshold
pKd (GRIP1_3, Q9Y3R0; [1]): below the threshold
pKd (DLG1_2, Q12959; [1]): below the threshold
pKd (PICK1, Q9NRD5; [1]): below the threshold
pKd (DLG3_2, Q92796; [1]): below the threshold
pKd (AHNAK1, Q09666; [1]): below the threshold
pKd (GRIP1_4, Q9Y3R0; [1]): below the threshold
pKd (LNX1_3, Q8TBB1; [1]): below the threshold
pKd (PDZRN4_1, Q6ZMN7; [1]): below the threshold
pKd (GORASP1, Q9BQQ3; [1]): 3.8
pKd (GRIP1_7, Q9Y3R0; [1]): 4.09
pKd (LIN7B, Q9HAP6; [1]): below the threshold
pKd (DLG2_3, Q15700; [1]): below the threshold
pKd (NHERF4_1, Q86UT5-2; [1]): below the threshold
pKd (Inadl_5, Q8NI35; [1]): 4.25
pKd (SNTB1, Q13884; [1]): below the threshold
pKd (Inadl_9, Q8NI35; [1]): 3.97
pKd (PCLO, Q9Y6V0; [1]): below the threshold
pKd (MPP7, Q5T2T1; [1]): 4.29
Binder: KKNKDKEYYV [NRXN1, Q9ULB1]

pKd (Inadl_1, Q8NI35; [1]): below the threshold
pKd (DFNB31_1, Q9P202; [1]): below the threshold
pKd (PDZD2_2, O15018; [1]): 5.72
pKd (HTRA3, P83110; [1]): below the threshold
pKd (DLG1_1, Q12959; [1]): below the threshold
pKd (SCRIB_3, Q14160; [1]): below the threshold
pKd (Inadl_10, Q8NI35; [1]): below the threshold
pKd (APBA2_1, Q99767; [1]): below the threshold
pKd (GRIP1_3, Q9Y3R0; [1]): below the threshold
pKd (DLG1_2, Q12959; [1]): 3.85
pKd (PICK1, Q9NRD5; [1]): below the threshold
pKd (DLG3_2, Q92796; [1]): 3.87
pKd (AHNAK1, Q09666; [1]): below the threshold
pKd (GRIP1_4, Q9Y3R0; [1]): below the threshold
pKd (LNX1_3, Q8TBB1; [1]): below the threshold
pKd (PDZRN4_1, Q6ZMN7; [1]): below the threshold
pKd (GORASP1, Q9BQQ3; [1]): below the threshold
pKd (GRIP1_7, Q9Y3R0; [1]): below the threshold
pKd (LIN7B, Q9HAP6; [1]): below the threshold
pKd (DLG2_3, Q15700; [1]): below the threshold
pKd (NHERF4_1, Q86UT5-2; [1]): below the threshold
pKd (Inadl_5, Q8NI35; [1]): below the threshold
pKd (SNTB1, Q13884; [1]): 3.87
pKd (Inadl_9, Q8NI35; [1]): below the threshold
pKd (PCLO, Q9Y6V0; [1]): below the threshold
pKd (MPP7, Q5T2T1; [1]): below the threshold
Binder: EDEDEQVSAV [RAPGEF2, Q9Y4G8]

pKd (Inadl_1, Q8NI35; [2]): below the threshold
pKd (DFNB31_1, Q9P202; [2]): below the threshold
pKd (PDZD2_2, O15018; [2]): 3.79
pKd (HTRA3, P83110; [2]): 3.5
pKd (DLG1_1, Q12959; [2]): 3.53
pKd (SCRIB_3, Q14160; [2]): below the threshold
pKd (Inadl_10, Q8NI35; [2]): below the threshold
pKd (APBA2_1, Q99767; [2]): below the threshold
pKd (GRIP1_3, Q9Y3R0; [2]): below the threshold
pKd (DLG1_2, Q12959; [2]): 3.99
pKd (PICK1, Q9NRD5; [2]): below the threshold
pKd (DLG3_2, Q92796; [2]): 3.93
pKd (AHNAK1, Q09666; [2]): below the threshold
pKd (GRIP1_4, Q9Y3R0; [2]): below the threshold
pKd (LNX1_3, Q8TBB1; [2]): 3.67
pKd (PDZRN4_1, Q6ZMN7; [2]): below the threshold
pKd (GORASP1, Q9BQQ3; [2]): below the threshold
pKd (GRIP1_7, Q9Y3R0; [2]): below the threshold
pKd (LIN7B, Q9HAP6; [2]): below the threshold
pKd (DLG2_3, Q15700; [2]): 3.91
pKd (NHERF4_1, Q86UT5-2; [2]): 3.52
pKd (Inadl_5, Q8NI35; [2]): below the threshold
pKd (SNTB1, Q13884; [2]): below the threshold
pKd (Inadl_9, Q8NI35; [2]): below the threshold
pKd (PCLO, Q9Y6V0; [2]): below the threshold
pKd (MPP7, Q5T2T1; [2]): below the threshold
Binder: QPGTPTRTAV [MAP2K2, P36507]
